Data on 3 variants can be found in PMC7588443 (Nature Communications, 2020).

B1: unnamed (parent)
chain 1: ECPDRWRAEIDLGLPPGVQVGDLLRNEQTMGSLRQVYLLAVQANSITDHLKRFDAVRVPESCRGVVEAQVAKLEAVRSVIWNTMISLAVSGIEMDENGLKALLDKQAGDSLALMEMEKVATALKMD
chain 2: MQKVSLRVTPRLVLEVNRHNAICVATNVPEFYNARGDLNIRDLRAHVKARMISSQFCGYVLVSLLDSEDQVDHLNIFPHVFSERMILYKPNNVNLMEMCALLSMIENAKSPSIGLCREVLGRLTLLHSKCNNLDSLFLYNGARTLLSTLVKYHDLEEGAATPGPWNEGLSLFKLHKELKRAPSEARDLMQSLFLTSGKMGCLARSPKDYCADLNKEEDANSGFTFNLFYQDSLLTKHFQCQTVLQTLRRKCLGSDTVSKIIP

Variants of B1 are the subject of the first assay. In words: BLI. The note with it: with partner chain of the complex shown; 10 μg ml−1 His-tagged BBRF2Δ(F209K); BSRF1Δ at 500, 250, 125, 62.5, 31.3, 15.6 nM.
One may read the Kd as the equilibrium constant for the complex coming apart. On to chain 2 F193K, for which the Kd was 0.0539 µM.

Still in this assay, the particulars now being: with partner chain of the complex shown; 10 μg ml−1 His-tagged BBRF2Δ; BSRF1Δ(M63D) at 500, 250, 125, 62.5, 31.3, 15.6 nM.
As to chain 1 M30D, the Kd came to 0.126 µM.

The assay is the same for the next values; noted with them: with partner chain of the complex shown; 10 μg ml−1 His-tagged BBRF2Δ; BSRF1Δ(N59K) at 500, 250, 125, 62.5, 31.3 nM.
On to chain 1 N26K, for which the dissociation constant (Kd) is 0.0599 µM.
